± gives the uncertainty stated by the source.

This data set can be described thus: amyloid nucleation score (Sup35N fusion, yeast selection) (log enrichment); library NNK1; higher = more nucleation; inactive = no reads after selection. The essentials: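 Growth for 7 days at 30°C on medium lacking adenine and uracil followed a 24-hour induction with 100 μM copper sulfate of psi-negative yeast expressing peptides of 20 random codons fused to Sup35N. Input and output plasmid inserts were sequenced with Illumina, and sequences with under 100 input reads were excluded. Nucleation score is the DiMSum log enrichment of output over input reads, centred on the mode score of non-aggregating sequences.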
Substance LDQRKGPFSNSALRGHSWCN came in with an amyloid nucleation score of -0.506 ± 0.44. The result for VPVVDNIVSIL reads -0.718 ± 1.7; that for MLLLSVSLSLKID, 4.35 ± 0.095; that for AARVGVVVF, 0.065 ± 0.41.

In the case of FYISNMM, the amyloid nucleation score was -1.35 ± 0.74. The result for VEIPHKKWNYVSHLLLSIHG reads 0.307 ± 0.3; that for PSQRNKIPGMLSLYY, -0.193 ± 0.57. The substance TNWAVKGWAVECRRHSGPNT registered an amyloid nucleation score of 1.45 ± 0.79. Substance SYYIC gave an amyloid nucleation score of 0.583 ± 0.41. In turn, LDLMVVCFKGIRGFEKMIGG gave an amyloid nucleation score of 1.5 ± 0.31. For the substance RSCSNRIIKCNLSHVMFY, the amyloid nucleation score worked out at 4.45 ± 0.052. Substance IHQEIVNVNTIVCN displayed an amyloid nucleation score of -0.147 ± 0.25. Next, GNALRMVWERTQGTLPEYRR: 0.219 ± 0.59; IKSVVLS: 0.043 ± 0.63. Next, VWFYRLIVSEVGFFRVKLKM: -1.58 ± 1.4; HGLNVTLDVHGESYLHIYVW: -0.036 ± 0.62; SSCGFMRNVIITMHKADIDR: “inactive”. Regarding GIRVFPMCNFG, the amyloid nucleation score result is “inactive”.

As to LISFEHEFKRCHCALVTWT, the amyloid nucleation score was -0.048 ± 0.3. Next, CGIVFCSSFMDIFGPFDQTH: 8.373 ± 0.056; VVAAILHKLS: -0.16 ± 0.41; RRVNNKLRSTSGSTLTCCTY: 0.216 ± 1.4. On to LVALPMWIF, for which the amyloid nucleation score is 0.402 ± 0.41. Turning to TFTPWKVDVLSRYRMQGCAQ, the amyloid nucleation score was 0.556 ± 0.47. Turning to MTPKLVQSRT, the amyloid nucleation score is 0.106 ± 0.91. In turn, NEHQVNEG had an amyloid nucleation score of 0.478 ± 0.48. The result for VIPKGPSKTLNNFWYYAYHS reads -0.327 ± 0.79; that for VISPNSLTCCAH, -0.146 ± 0.93. The result for YSCIYKWHECNNVNDNMK reads 0.149 ± 0.46. In turn, NYFSQKWFTTGRTPRMMDMW showed an amyloid nucleation score of -0.007 ± 0.32. Take ARVSRSFVSRAANIHGNCRR: the amyloid nucleation score was -0.029 ± 1.1. Next, WRARLWDLNPWHVAREMIAG: 0.096 ± 0.93. As to TMAFVKLLNGSGNLEILKFS, the amyloid nucleation score was 0.785 ± 0.44. Take YTWGRLGSEIKPARASMHLA: the amyloid nucleation score came to 1.08 ± 0.75. The result for FTLLAFGCNSENGG reads -0.462 ± 0.6; that for VVCFMPVLMAVQMGCSHWNY, 3.55 ± 0.063; that for KLYGVSCAPLSEDHCLGKAA, -0.339 ± 0.48. Take RARCAVGS: the amyloid nucleation score is -0.396 ± 1.5. In the case of NFFVSRLISQPHLGTYYAS, the amyloid nucleation score entry is “inactive”. AISVGVFRVWC: the amyloid nucleation score came out at 3.53 ± 0.09. In the case of FRYLVKYRVLH, the amyloid nucleation score worked out at 0.14 ± 0.44. The substance FVRAIMARVGFTFV registered an amyloid nucleation score of 0.569 ± 0.47. IVLPVCDIITEAVLSCNSPG came in with an amyloid nucleation score of 0.318 ± 0.33. As to AQLWRARREFSFMTPMPSVS, the amyloid nucleation score is -0.624 ± 1.5. DCGAWGHTLVSWSKYLGKSF displayed an amyloid nucleation score of 3.64 ± 0.092. Take ASRSSIPSG: the amyloid nucleation score is -0.038 ± 1. The result for RITHRFVFTRAFTNGRALLR reads 0.405 ± 0.27; that for FRPSRHNAQPMFHSKPSRAF, -0.636 ± 1.1.

AFRRCTKSFIL returned an amyloid nucleation score of -0.427 ± 1.9. As for PLLERHVAGLCGFFF, the amyloid nucleation score was -0.908 ± 1.2. Next, SRPDVLYCDIFHFRHQILSF: -0.173 ± 0.75; DFYLT: -0.257 ± 1.4; RPGMEADLLVNLPLF: 0.958 ± 0.72. MLWTCKDNLCKDMTHVWSIY: the amyloid nucleation score entry is “inactive”. Next, SSFKWLAASWLQGALHTMRG: -0.348 ± 0.79; QFVHGRNETIRSFNCPGLAE: -0.007 ± 1.2; SRCRGSYTSSNSYWPAGDPM: -0.777 ± 1.7. The result for EVCVLRTLNRKNFDEPDNCI reads 0.913 ± 0.56. Next, FNYVICYSLCVVFWARRWCN: 1.75 ± 0.14.

Regarding CGKESRVRVKYCVFGIKKWQ, the amyloid nucleation score is -0.518 ± 0.53.

In turn, PMVIKVLVGCRGYSDLNLYW gave an amyloid nucleation score of 4.9 ± 0.079. For the substance LRYIMPDND, the amyloid nucleation score is -1.09 ± 1.5. Substance GIAVGS registered an amyloid nucleation score of 0.413 ± 0.49. The result for GREANILFLYLVLRTFFRMG reads “inactive”. The result for TVSVANSKWSDTVINMRLDR reads 5.72 ± 0.065; that for RKLKSCSTNGHIG, 6.02 ± 0.063; that for RTCSKHYIWYKALIGFALGN, -0.27 ± 0.33. Next, NALRVV: -0.637 ± 0.68; RVETYRSYGAIIEVNRPVYM: 0.625 ± 0.6; PVRQLERSNRLLKQGRRPLG: 0.512 ± 0.49. Regarding MDRIRFLFFW, the amyloid nucleation score was found to be 0.448 ± 0.69. Take TFSTGRACLNEVRNVGMFKM: the amyloid nucleation score turned out to be 0.75 ± 0.54. For the substance IAWFYRGPIKLLRLYIGGIW, the amyloid nucleation score is -0.042 ± 0.73.

Substance MYNNTALRRSEYADCH yielded an amyloid nucleation score of 0.872 ± 0.8. SDMDNTWLA yielded an amyloid nucleation score of -0.797 ± 0.66. The substance APPLSFEFL registered an amyloid nucleation score of 3.06 ± 0.092. The result for LSKVVFGLWFCT reads 0.299 ± 0.34; that for IHSAYLNAQRKVWATAKFKW, -0.639 ± 0.35. Consider PNRSLCTVNMCIYVETGFMV, for which the amyloid nucleation score entry was “inactive”.

EKHEVVCIVKTVR: the amyloid nucleation score came out at 0.424 ± 0.85.

Consider TSGSCSACCLWVRGDNETFM, for which the amyloid nucleation score was 7.881 ± 0.048. In turn, ECYLV returned an amyloid nucleation score of -0.663 ± 0.8. Next, NDDTLRSTKVIEHLFP: 0.698 ± 1.2; PGFFWHICFG: 4.55 ± 0.082; VKSGS: 0.21 ± 0.24.

Turning to MALLARFRGAFLVCSGFIAC, the amyloid nucleation score is -1.56 ± 2.4. The result for INNHKIDQTML reads -0.541 ± 0.84; that for RNSRICSFS, 0.59 ± 0.35.

The substance DIFRIYMWVHCMDRHSDGTV came in with an amyloid nucleation score of 2.29 ± 0.27. Substance NHSLMGVSTSFWI registered an amyloid nucleation score of -0.334 ± 0.45. LHTRGLEMFRIGPSCCKWPL displayed an amyloid nucleation score of 1.49 ± 0.68. Substance LAGQVVRRTKTLWHAPAHPY returned an amyloid nucleation score of 0.374 ± 0.36. The substance ERIRTHIRPIGCRRNLMVGW gave an amyloid nucleation score of 1.08 ± 0.63.

Consider YNCYNF, for which the amyloid nucleation score is 0.97 ± 0.69. The result for YWLSTTIRYVCEVQATPCWI reads -1.31 ± 2.7; that for FSRCPHQALSTECFPFFGS, -0.122 ± 1.4. The result for VTMDCLMLPYRKGNPN reads 0.996 ± 0.64. Next, LLSHQVTPSGRYSFSLCKSW: 0.873 ± 0.84; LIFSNNWFYYTFYDS: 5.85 ± 0.087.

As for LAWWLCGNLVTWYIITDGQW, the amyloid nucleation score was 1.04 ± 0.55. As for GISSSTLTFRTMWEDRCVEG, the amyloid nucleation score is 0.825 ± 0.66.

As for WHEWNSVEWVGRSWTTDFEW, the amyloid nucleation score entry was “inactive”. In the case of KERIFPLTTEAMKLERKA, the amyloid nucleation score is -0.341 ± 0.57. In turn, NVIGISATNASLSLVLISVI returned an amyloid nucleation score of -0.509 ± 0.32. The result for QTSLMMWLRR reads “inactive”; that for QMGELSSYRLFGIRTFRF, -0.02 ± 0.81; that for TLCQFSSARACYAWVVFPTY, 1.19 ± 0.21. The result for TRISFRKGV reads -0.54 ± 0.5; that for VLKTWVIDNKSVGEMCNLNG, 0.556 ± 0.85; that for NGLWVGHLVLDGIYSA, -0.564 ± 0.33. Substance MCSERMGFFIVSGVVLKLTH had an amyloid nucleation score of 0.814 ± 0.57. The result for NGRENWSDETGSMFECALYS reads 1.28 ± 0.44. WISFYSPCMGRAISLSVVDV gave an amyloid nucleation score of 0.68 ± 0.54.

The substance LFRIPDWPEL gave an amyloid nucleation score of -1.07 ± 0.77. The result for HIYNDSVRSFWIFQ reads 6.606 ± 0.05.

Substance VCTCTLVVDSTLCLGSVGTA returned an amyloid nucleation score of 2.04 ± 0.18.

For LQRLY, the amyloid nucleation score was -0.251 ± 0.35. Substance MFSVFNRKRN yielded an amyloid nucleation score of -0.354 ± 0.26.

In turn, TVLGQH yielded an amyloid nucleation score of -0.058 ± 0.29.

In turn, VVAVE registered an amyloid nucleation score of -0.27 ± 0.38. NQDFLTLALKWRCECFHTKL returned an amyloid nucleation score of -0.247 ± 1.9.

As for DVFYVILNVSLVCSVPFLSA, the amyloid nucleation score was -0.179 ± 0.72. EMTCAWDGNELLFKQRRTIR: the amyloid nucleation score entry is “inactive”. Next, FGYTVFIDFVSSGMMRFGGQ: 0.784 ± 0.48; GVMSTDPFLTLYTVLVGVLI: “inactive”; IFTFSIVTSNATGYLW: 2.29 ± 0.12. On to TQKHCY, for which the amyloid nucleation score turned out to be 0.326 ± 0.33. Next, FRNIDTLLTVHCVSACR: -2.4 ± 2.7; WCSAMKISTRAPRWENIWSM: 0.612 ± 0.62.

As to DMMAIGSTTVCLVLRFFGKM, the amyloid nucleation score was -0.929 ± 2.7. In turn, RNRYTFSIRLVQTDYCFLGM gave an amyloid nucleation score of 1.63 ± 0.19. The result for NYITCC reads 1.37 ± 0.1; that for YDFLPRVNNPLSRNLRHRAL, -0.071 ± 0.56; that for FLISWTIVMHVCTMTDACCR, “inactive”. For RGEKHVRVYRVMSV, the amyloid nucleation score is -0.192 ± 0.49. On to LSPSSMN, for which the amyloid nucleation score entry was “inactive”.

As to LRVKSSGDLSLSGSFDCDV, the amyloid nucleation score was 0.199 ± 0.64. The result for VMGVLYSRADSVVEIGLLRV reads -0.972 ± 1; that for GTSKTTGERDWLRPMTRDI, -0.94 ± 2.7; that for FSFISKIIESCYGDFLVGDA, -1.21 ± 0.61. The result for IIKDDLRMCWDGKRYWNSLI reads 0.713 ± 0.32. Next, TSFLWLLTFERFD: “inactive”.

(Values after the supplement of paper PMC12042874.)
